Laboratory results: patent US5981483A, “Compositions comprising modulators of cytokines of the TGF-β superfamily” (Mount Sinai Hospital Corporation, priority 1997, dated 1999)
Where a SMILES comes first, the peptide text is derived from it. Bridges are numbered along the chain shown (N, C = ends). The star is where a group is joined. Cam = NC(=O)C*

Assays:
[1] = tested on: rat bone marrow stromal cells; assay: Dexamethasone-treated rat bone marrow stromal cell cultures (proliferation, mineralization, TGF-β levels); assay type: cell-based; conditions: dexamethasone 10^-8 M, FIG. 17
Method: The methods used in the studies described in this example and illustrated in FIGS. 16 and 17 are as follows. Femoral bones were removed under aseptic conditions from adult male Wistar rats (120 g), cleaned of adherent soft tissues, and washed extensively in antibiotics. The distal ends were removed and the marrow contents were flushed out with 10 ml of culture medium. The cells were dispersed by repeated passage through a 20 gauge needle and incubated in alpha-MEM supplemented with 15% fetal bovine serum, ascorbic acid (50 μg/ml), antibiotics (penicillin G 100 μg/ml, gentamicin 50 μg/ml, fungizone 0.3 μg/ml) and 10 mM β-glycerophosphate. […] Following 6 days of culture at 37° C. in a humidified atmosphere containing 5% CO2 in air, the cells were re-plated at a density of 1×10^2 cell/mm^2 in 96 multi-well plates (Falcon 3047), and grown for another 12-14 days. At the end of culture, the cells were fixed and stained for calcium with alizarin red-s for quantification of bone nodule area (reported as mineralized area (mm^2)/well). To assess mineralized tissue formation in the cultures morphometric measurements were carried out with the aid of a Bioquant IV system (Bioquant, Nashville, Tenn., U.S.A.) using a Leitz Orthoplan microscope. TGF-β in culture supernatants taken 4 days prior to scoring mineralization were measured with and without heat activation (80° C. for 10 min) using the Mink cells as the indicator cell line as described in FIG. 12.

TGF-β1 [2] = target: T1, TGF-β1 (Homo sapiens, UniProt P01137); assay: BIAcore surface plasmon resonance, binding to immobilized TGF-β1; conditions: for kass: ligand TGF-β1
T1 construct: The mature processed cytokines produced from the members of the gene family show almost 100% amino acid identity between species; purchased Collaborative Research (Bedford, Mass.)
Method: (§1) In this system, a purified protein serving as the ligand is covalently coupled to a carboxymethylated dextran surface, and binding molecules (i.e. the analyte) are passed in a fluid phase across the surface. Binding of the analyte to ligand causes a change in reflected light which is directly proportional to mass bound, and is measured in arbitrary response units (R.U.). Analyte-ligand binding is observed as both increasing response with time during the injection of analyte, and the difference in the position of the baseline before and after injection.
(§2) Schuster, R. V. Swanson, L. A. Alex, R. B. Bourret, M. I. Simon, Nature 365, 343 (1993). 1000 R.U. equals approximately 1 ng/mm^2. The running buffer was 20 mM Hepes (pH 7.2), 150 mM NaCl and the flow rate for all sensorgrams was 3 μl/min.
(§3) Regeneration of the surface to remove bound analyte was done by injection of 10 μl of 20 mM NaOH. To cyclize TRH1 peptides, the material was reduced with 5 mM DTT then brought to a final concentration of 60 μM in 25 mM ammonium acetate (pH 8.5). After stirring in the dark for 30 min at 20° C. with 30 mM potassium ferricyanide, the peptide was mixed with AG3-X4A resin (BioRad), filtered, lyophilization and desalted on a 50×2.5 cm column of Biogel P2 (Pharmacia) developed in water, and further purified by reverse phase HPLC.
(§4) Injection volumes were 36 μl for FIG. 2, 4 and 5 and 45 μl for FIG. 3. […] Protein concentrations in each experiment were (FIGS. 2 and 3), 2, 5, 10, 20, 30, 40 μM; (FIG. 4), 0.21, 0.31, 0.41, 0.62, 0.82, 1.24 μM; (FIG. 5), 0.22, 0.29, 0.44, 0.59, 0.88 μM. R.U. for the immobilized cytokine in each experiment was 2850 R.U. for FIGS. 2 and 3; 7450 R.U. for FIG. 4, and 5300 R.U., for FIG. 5 respectively.
(§5) Data was analyzed using the BIA-evaluation software (Pharmacia Biosensor). The association rate constant, kass, was calculated by first plotting the change in response with time versus response (i.e. dR/dT vs R). When the slope of the line from this graph is plotted versus analyte concentration (i.e d(dR/dT)/dR vs C), kass is obtained from the slope of the line. The dissociation rate constant, kdiss, is obtained during the decrease in response with time after analyte injection is discontinued. Specifically, kdiss was obtained from the slope of the line in a plot of ln(Rt1 /Rtn) vs time. The affinity constants were calculated from KD =kdiss /kass. Variance for kass is standard error of the linear regression plot, and for kdiss values are the mean ± range of 3 or more independent injections.

TGF-β1 binding to TβRII = target: T2, TGF-β1 binding to TβRII (Homo sapiens, UniProt P01137); assay: Competition of TGF-β1 binding to immobilized TβRII (Quantikine ELISA); conditions: 40 pM TGF-β1; fetuin 40 μM, TRH1 peptide from TβRII 20 μM; FIG. 14
T2 construct: The mature processed cytokines produced from the members of the gene family show almost 100% amino acid identity between species; purchased R&D Systems
Method: Inhibition of TGF-β1 binding to TβRII was carried out using the Quantikine ELISA kit (R&D Systems). In particular, 96 well plates were pre-coated with the extracellular domain of TβRII. […] This was followed by a 5 minute incubation with the TβRII coated ELISA wells with shaking, washing as recommended, and a 1 hr incubation with the polyclonal anti-TGF-β1 antibody. Plates were developed as per the instructions, and determinations were made in triplicate.

BMP-2 = target: T3, BMP-2 (Homo sapiens, UniProt P12643); assay: BIAcore surface plasmon resonance, binding to immobilized BMP-2; conditions: for kass: ligand BMP-2
T3 construct: Genetics Institute, Cambridge, Mass; (gift)
T3 sequence (P12643 283-396): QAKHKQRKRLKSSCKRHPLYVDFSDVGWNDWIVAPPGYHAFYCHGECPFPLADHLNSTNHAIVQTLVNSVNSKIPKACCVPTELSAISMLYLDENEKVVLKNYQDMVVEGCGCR
Method: as §1, §2, §3, §4, §5

TGF-β1 [3] = target: T1, TGF-β1; assay: 3H-Thymidine incorporation in Mv1Lu cells: neutralization of the antiproliferative activity of TGF-β1; assay type: cell-based
Method: Mv1Lu cells were seeded at 20,000 cells/well in a 96 well plate containing 0.2% FCS in α-MEM and incubated with the indicated concentrations of proteins for 18 hr. The cells were then pulsed with 8 μCi/ml methyl-^3 H-thymidine (NEN, Boston, Mass.) for 6 hr. Cells were trypsinized, harvested onto filtermats and counted in a β-Counter. Percent neutralization is defined as incorporation in the presence of 12 pM TGF-β1 alone set at 0%, and incorporation without additions as 100%. The difference in ^3 H-thymidine incorporation between 0% and 100% was 7.5 fold. Each point in FIG. 1 and FIG. 12 represents the mean of duplicate determinations, and the results are representative of three experiments. […] Before use, bovine thyroglobulin was spun twice in a centricon (M.W. cutoff of 10,000 Da) micro-concentrator (Amicon, Beverly, Mass.) to remove any excess Iodine and T3/T4 thyroid hormones.

TGF-β2 = target: T4, TGF-β2 (Homo sapiens, UniProt P61812); assay: BIAcore surface plasmon resonance, binding to immobilized TGF-β2; conditions: Table 1; ligand TGF-β2
T4 construct: The mature processed cytokines produced from the members of the gene family show almost 100% amino acid identity between species
T4 sequence (P61812 303-414 limits assumed): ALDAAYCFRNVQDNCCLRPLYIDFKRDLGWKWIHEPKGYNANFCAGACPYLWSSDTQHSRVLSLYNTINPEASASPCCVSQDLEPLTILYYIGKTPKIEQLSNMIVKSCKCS
Method: as §1, §2, §3
as §5, with “Variance for kass is standard error of the linear regression plot, and for kdiss values are the mean ± range of 3 or more independent injections.” left out

BMP-4 = target: T5, BMP-4 (Homo sapiens, UniProt P12644); assay: BIAcore surface plasmon resonance, binding to immobilized BMP-4; conditions: Table 1; ligand BMP-4
T5 sequence (P12644 293-408): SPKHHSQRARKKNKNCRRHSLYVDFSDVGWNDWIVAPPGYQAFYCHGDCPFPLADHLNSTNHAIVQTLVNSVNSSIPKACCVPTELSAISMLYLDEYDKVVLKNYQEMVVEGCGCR
Method: as §1, §2
Regeneration of the surface to remove bound analyte was done by injection of 10 μl of 20 mM NaOH. To cyclize TRH1 peptides, the material was reduced with 5 mM DTT then brought to a final concentration of 60 μM in 25 mM ammonium acetate (pH 8.5). […]
Data was analyzed using the BIA-evaluation software (Pharmacia Biosensor). The association rate constant, kass, was calculated by first plotting the change in response with time versus response (i.e. dR/dT vs R). […] The affinity constants were calculated from KD =kdiss /kass. […]

[4] = Table 2 (calculations repeated)

T1 sequence (P01137 279-390 limits assumed): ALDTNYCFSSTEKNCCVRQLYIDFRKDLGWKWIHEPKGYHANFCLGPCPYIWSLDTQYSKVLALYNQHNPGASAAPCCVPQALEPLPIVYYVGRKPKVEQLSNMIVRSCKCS
T2 sequence (P01137 279-390 limits assumed): as above

C[C@@H]1C[C@H]2[C@@H]3CCC4=CC(=O)C=C[C@]4(C)[C@@]3(F)[C@@H](O)C[C@]2(C)[C@@]1(O)C(=O)CO [Dexamethasone, dexamethasone, reference compound]
increase of the fraction of active TGF-β in the cultures [1]: 3 fold

CC[C@H](C)[C@@H]1NC(=O)[C@H](CC(N)=O)NC(=O)[C@H](CCC(=O)O)NC(=O)[C@H](CC(=O)O)NC(=O)[C@H](CC(N)=O)NC(=O)[C@H](CCCCN)NC(=O)[C@H](CCCNC(=N)N)NC(=O)[C@H](Cc2c[nH]c3ccccc23)NC(=O)[C@H](C(C)C)NC(=O)[C@H](C)NC(=O)[C@H](C(C)C)NC(=O)[C@@H](N)CSSC[C@@H](C(=O)O)NC(=O)[C@H](C(C)C)NC(=O)[C@H]([C@@H](C)O)NC(=O)[C@H](CCC(=O)O)NC(=O)[C@H](CC(C)C)NC(=O)[C@H]([C@@H](C)O)NC1=O [TRH1b (TβRII)]
kass (TGF-β1 [2]; Table 1): 3700 ± 2900 M⁻¹ s⁻¹
kass (TGF-β1 [2]; [4]): 2200 ± 1300 M⁻¹ s⁻¹
inhibition of TGF-β1 binding to immobilized recombinant TβRII (TGF-β1 binding to TβRII): competitive inhibitors

CC[C@H](C)[C@H](NC(=O)[C@H](CC(=O)O)NC(=O)[C@@H](N)CSCC(N)=O)C(=O)N[C@@H](Cc1c[nH]cn1)C(=O)N[C@H](C(=O)N[C@@H](CC(C)C)C(=O)N[C@@H](CCCCN)C(=O)N[C@@H](CCC(N)=O)C(=O)N[C@@H](CC(=O)O)C(=O)NCC(=O)N[C@@H](CCC(N)=O)C(=O)N[C@@H](Cc1ccccc1)C(=O)N[C@@H](CO)C(=O)N[C@H](C(=O)N[C@@H](CC(C)C)C(=O)N[C@@H](Cc1ccccc1)C(=O)N[C@H](C(=O)N[C@@H](CCCCN)C(=O)N[C@@H](CSCC(N)=O)C(=O)O)[C@@H](C)O)C(C)C)C(C)C [TRH1b (fetuin) (reduced & alkylated)] (H-C(Cam)DIHVLKQDGQFSVLFTKC(Cam)-OH; N-terminus and C-terminus assumed)
binding to immobilized BMP-2 (in words) (BMP-2): no significant binding

CC[C@H](C)[C@@H]1NC(=O)[C@H](CC(=O)O)NC(=O)[C@@H](N)CSSC[C@@H](C(=O)O)NC(=O)[C@H](CCCCN)NC(=O)[C@H]([C@@H](C)O)NC(=O)[C@H](Cc2ccccc2)NC(=O)[C@H](CC(C)C)NC(=O)[C@H](C(C)C)NC(=O)[C@H](CO)NC(=O)[C@H](Cc2ccccc2)NC(=O)[C@H](CCC(N)=O)NC(=O)CNC(=O)[C@H](CC(=O)O)NC(=O)[C@H](CCC(N)=O)NC(=O)[C@H](CCCCN)NC(=O)[C@H](CC(C)C)NC(=O)[C@H](C(C)C)NC(=O)[C@H](Cc2c[nH]cn2)NC1=O [TRH1b (fetuin)] (H-CDIHVLKQDGQFSVLFTKC-OH; disulfide 1-19; N-terminus and C-terminus assumed)
kass (BMP-2; [4]): 1300 ± 500 M⁻¹ s⁻¹
Competition of fetuin-BMP-2 binding (BMP-2; co-injected with fetuin, data not shown, listed as fetuin TRH1b peptide): competed for fetuin-BMP-2 binding in a dose dependent manner

Thyroglobulin: Bovine thyroglobulin (Sigma), contains the TRH1 domain
Maximal effect, percent neutralization (TGF-β1 [3]; 12 pM TGF-β1, FIG. 1): approximately 150%
IC50 for inhibition of TGF-β1 activity, fold lower than for fetuin (TGF-β1 [3]; FIG. 1): 20 fold
kass (TGF-β2): 1300 ± 600 M⁻¹ s⁻¹
kass (BMP-2; Table 1): 32000 ± 2000 M⁻¹ s⁻¹
kass (BMP-4): 54000 ± 7000 M⁻¹ s⁻¹

human transferrin: non-binding control protein [reference compound]
binding to immobilized TGF-β1 (in words) (TGF-β1 [2]): non-binding

reduced and alkylated fetuin: fetuin, reduced and alkylated
binding to immobilized TGF-β1 (in words) (TGF-β1 [2]): diminished binding
binding to immobilized BMP-2 (in words) (BMP-2): diminished binding
